Measurements reported in patent CN106905431A (XUHUA (SHANGHAI) BIOLOGICAL RES AND DEV CENTER CO LTD, dated 2017).
Changes are numbered by the printed parent chain. One block for each binder: values may come before it.

Columns and labels:
[1] = biological target: T1, 人补体D因子 (human complement Factor D) (human, UniProt P00746 26-253); assay: SPR (Biacore T200), Fab captured on CM5 chip
T1 construct: Bought protein; also called 人D因子; human CFD

[2] = biological target: T1, 人补体D因子 (human complement Factor D); assay: SPR (Biacore T200), full-length antibody captured by anti-human IgG Fc on CM5, antigen in flow, 1:1 model
[3] = biological target: T1, 人补体D因子 (human complement Factor D); assay: ELISA on coated human Factor D and BLI

T1 sequence (P00746 26-253 limits assumed): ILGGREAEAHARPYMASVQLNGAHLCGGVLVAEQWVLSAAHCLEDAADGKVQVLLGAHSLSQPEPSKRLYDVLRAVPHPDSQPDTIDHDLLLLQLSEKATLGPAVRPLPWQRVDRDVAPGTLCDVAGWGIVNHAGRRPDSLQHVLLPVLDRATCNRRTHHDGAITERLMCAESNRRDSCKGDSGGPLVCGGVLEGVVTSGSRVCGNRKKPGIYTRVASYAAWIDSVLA

B1: 人源化Fab克隆 AS01237 (Fab, V domains shown)
VH: EVQLVQSGAEVKKPGASVKVSCKASGYTFTSYVINWVRQAPGQGLEWMGYINPYIDDSEYNEKFEGRVTMTRNTSISTAYMELSSLRSEDTAVYYCAREGPAFAYWGQGTLVTVSS
VL: DIVMTQTPLSLSVTPGQPASISCRSSQNLVHSNGDTYLEWYQQKPGQPPKLLIYKVSTRFSGVPDRFSGSGSGTDFTLKISRVEAEDVGVYYCFQGSHVPPTFGQGTKVEIK
notes: Fab fragment with a SASA tag, as screened on Biacore; also called AS01237 Fab
binding result [1]: binds

B2: 抗人D因子人源化抗体 AS01237 (全长抗体) (antibody, V domains shown)
VH: B1 VH
VL: B1 VL
notes: Full-length antibody from pTT5 in HEK293, protein A purified, captured by anti-human IgG Fc
binding result [2]: binds

B3: 抗人D因子人源化抗体 AS01326 (全长抗体) (antibody, V domains shown)
VH: B1 VH with E1Q, A9S, V11L, A40M, Q43K, N73D, S85R, E89D
VL: B1 VL with I2V, T7S, S12P, P15L, Q42L, K50Q, V88F
notes: as for B2
binding result [2]: binds

B4: 人源化Fab克隆 AS01326 (Fab, V domains shown)
VH: B1 VH with E1Q, A9S, V11L, A40M, Q43K, N73D, S85R, E89D
VL: B1 VL with I2V, T7S, S12P, P15L, Q42L, K50Q, V88F
notes: Fab fragment with a SASA tag, as screened on Biacore; also called AS01326 Fab
binding result [1]: binds

B5: 抗人D因子人源化抗体 AS01328 (全长抗体) (antibody, V domains shown)
VH: B1 VH with E1Q, A9S, V11L, P41T, N73D, I76T, A79V
VL: B1 VL with Q17E, Q42L, P48A, K50R
notes: as for B2
binding result [2]: binds

The remaining lines, values ahead:

binding result [1]: binds
B6: 人源化Fab克隆 AS01328 (Fab, V domains shown)
VH: B1 VH with E1Q, A9S, V11L, P41T, N73D, I76T, A79V
VL: B1 VL with Q17E, Q42L, P48A, K50R
notes: Fab fragment with a SASA tag, as screened on Biacore; also called AS01328 Fab

binding result [3]: binds
B7: 抗人D因子鼠源单克隆抗体 Mab25 (antibody, V domains shown)
VH: AVQLQQSGPELVKPGASVKMSCKASGYTFTSYVINWMKQKPGQGLEWIGYINPYIDDSEYNEKFEGKATLTSDKTSSIAYMELSSLTSEDSAVYYCAREGPAFAYWGQGTLVTVSA
VL: DILLTQTPLSLPVSLGDHASVSCRSSQNLVHSNGDTYLEWYLQKPGQSPKLLIYKVSTRFSGVPDRFSGSGSGTDFTLKISRVEAEDLGVYYCFQGSHVPPTFGGGTKLEIK
notes: Mouse hybridoma antibody; The heavy chain was cloned with a primer for the mouse IgG1 constant region; also called 杂交瘤细胞株25

binding result [2]: binds
B8: 抗人D因子嵌合抗体 (Mab25的嵌合抗体, 全长) (antibody, V domains shown)
VH: B7 VH
VL: B7 VL
notes: Chimeric form of Mab25 (mouse variable regions on human constant regions), compared with the humanised antibodies in the Biacore assay
